Source: US20250277032A1

Columns and labels:
[1] = biological target: human ILT3 on the cell surface (recombinant human ILT3 exogenously overexpressed on HEK cells; ILT3 on THP-1 cells, DCs, macrophages) (human) (UniProt Q8NHJ6); experiment: flow cytometry on HEK cells overexpressing recombinant human ILT3
[2] = biological target: human ILT3 on the cell surface (recombinant human ILT3 exogenously overexpressed on HEK cells; ILT3 on THP-1 cells, DCs, macrophages) (human) (UniProt Q8NHJ6); experiment: cell-based or functional assay

Sequence of fibronectin (FN1), P02751 32-2477 (ligand) (P02751 32-2477 limits assumed): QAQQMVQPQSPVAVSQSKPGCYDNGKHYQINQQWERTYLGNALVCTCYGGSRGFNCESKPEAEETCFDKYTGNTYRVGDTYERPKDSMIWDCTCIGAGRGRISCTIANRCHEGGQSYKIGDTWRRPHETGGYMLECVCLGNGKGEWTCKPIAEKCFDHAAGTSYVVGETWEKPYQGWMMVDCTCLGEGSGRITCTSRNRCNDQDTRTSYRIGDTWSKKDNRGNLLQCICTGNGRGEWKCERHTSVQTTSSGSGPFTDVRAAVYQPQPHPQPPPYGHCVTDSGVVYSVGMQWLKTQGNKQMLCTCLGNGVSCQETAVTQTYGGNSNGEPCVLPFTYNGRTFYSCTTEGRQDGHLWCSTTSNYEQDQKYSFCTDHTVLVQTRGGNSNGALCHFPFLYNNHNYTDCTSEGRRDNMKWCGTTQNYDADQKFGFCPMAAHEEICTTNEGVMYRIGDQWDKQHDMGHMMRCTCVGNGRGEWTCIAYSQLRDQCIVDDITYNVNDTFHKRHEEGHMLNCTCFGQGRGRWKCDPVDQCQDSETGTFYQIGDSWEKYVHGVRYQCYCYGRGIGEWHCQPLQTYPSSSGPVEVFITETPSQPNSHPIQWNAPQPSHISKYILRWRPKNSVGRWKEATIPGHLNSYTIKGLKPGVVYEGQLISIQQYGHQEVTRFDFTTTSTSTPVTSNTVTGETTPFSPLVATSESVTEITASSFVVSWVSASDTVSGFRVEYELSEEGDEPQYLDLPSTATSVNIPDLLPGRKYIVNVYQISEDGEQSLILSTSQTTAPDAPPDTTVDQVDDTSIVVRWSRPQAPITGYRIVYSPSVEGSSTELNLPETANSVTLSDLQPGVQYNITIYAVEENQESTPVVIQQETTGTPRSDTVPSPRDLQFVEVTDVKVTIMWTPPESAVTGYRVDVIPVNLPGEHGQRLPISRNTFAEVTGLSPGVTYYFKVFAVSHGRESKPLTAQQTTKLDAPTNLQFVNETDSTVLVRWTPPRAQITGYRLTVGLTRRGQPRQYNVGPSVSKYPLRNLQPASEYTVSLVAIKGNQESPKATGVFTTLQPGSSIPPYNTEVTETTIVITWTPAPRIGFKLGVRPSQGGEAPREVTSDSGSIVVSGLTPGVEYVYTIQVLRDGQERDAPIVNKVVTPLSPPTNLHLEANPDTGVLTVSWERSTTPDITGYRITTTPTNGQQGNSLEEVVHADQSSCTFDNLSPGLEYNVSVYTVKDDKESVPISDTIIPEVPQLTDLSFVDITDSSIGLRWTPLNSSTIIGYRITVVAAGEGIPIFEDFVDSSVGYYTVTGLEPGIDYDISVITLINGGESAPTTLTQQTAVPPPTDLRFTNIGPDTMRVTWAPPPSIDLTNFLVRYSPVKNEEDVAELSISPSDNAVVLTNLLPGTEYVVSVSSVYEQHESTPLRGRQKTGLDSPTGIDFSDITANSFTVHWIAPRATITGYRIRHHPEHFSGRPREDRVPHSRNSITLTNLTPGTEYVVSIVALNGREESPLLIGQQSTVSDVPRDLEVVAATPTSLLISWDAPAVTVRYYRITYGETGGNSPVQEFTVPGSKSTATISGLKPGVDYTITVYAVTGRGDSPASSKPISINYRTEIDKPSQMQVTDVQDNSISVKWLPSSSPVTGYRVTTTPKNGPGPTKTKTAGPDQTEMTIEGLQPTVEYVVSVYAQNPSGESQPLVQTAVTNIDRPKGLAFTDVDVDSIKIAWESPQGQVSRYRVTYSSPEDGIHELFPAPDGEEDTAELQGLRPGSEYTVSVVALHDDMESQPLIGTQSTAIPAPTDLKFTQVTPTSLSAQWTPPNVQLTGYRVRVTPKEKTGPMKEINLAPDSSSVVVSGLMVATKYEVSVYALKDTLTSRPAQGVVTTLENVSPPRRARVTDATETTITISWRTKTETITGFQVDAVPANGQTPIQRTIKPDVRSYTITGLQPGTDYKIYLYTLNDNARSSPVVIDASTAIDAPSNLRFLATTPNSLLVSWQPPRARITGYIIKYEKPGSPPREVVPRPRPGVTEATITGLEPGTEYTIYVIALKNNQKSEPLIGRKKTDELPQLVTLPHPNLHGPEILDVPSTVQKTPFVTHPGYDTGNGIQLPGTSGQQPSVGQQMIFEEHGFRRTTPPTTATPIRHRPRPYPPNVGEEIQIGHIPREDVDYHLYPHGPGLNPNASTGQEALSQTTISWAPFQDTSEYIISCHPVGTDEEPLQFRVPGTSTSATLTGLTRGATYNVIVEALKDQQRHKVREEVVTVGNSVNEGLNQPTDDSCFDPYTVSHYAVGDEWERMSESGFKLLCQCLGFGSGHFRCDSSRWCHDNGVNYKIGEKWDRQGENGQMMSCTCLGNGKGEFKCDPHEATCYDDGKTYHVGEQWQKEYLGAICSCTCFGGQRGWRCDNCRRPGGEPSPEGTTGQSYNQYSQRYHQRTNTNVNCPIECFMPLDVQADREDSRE

Substance | average fluorescence [1] | decrease in IL-8 secretion from THP-1 cells activated with immobilized Rituximab [2]
ZM4.1 (commercial anti-ILT3 antibody) | 118 | 
fibronectin (FN1), P02751 32-2477 (ligand) |  | 67%
